From patent US20090029376
Substitutions are numbered along the chain they refer to.

Experiments:
Assay in all cases: cleavage_in_vitro
[1] = biological target: T1, BamHI (Bacillus amyloliquefaciens) (UniProt P23940); conditions: NEB4, 37 C
T1 sequence: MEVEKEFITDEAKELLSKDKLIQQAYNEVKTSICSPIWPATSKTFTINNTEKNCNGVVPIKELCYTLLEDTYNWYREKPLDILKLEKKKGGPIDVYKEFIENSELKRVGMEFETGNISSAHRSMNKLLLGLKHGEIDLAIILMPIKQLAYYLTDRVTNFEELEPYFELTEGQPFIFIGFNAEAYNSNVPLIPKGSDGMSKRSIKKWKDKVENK

[2] = test system: T2, BspQI (Bacillus sphaericus); conditions: NEB4, 50 C
T2 sequence: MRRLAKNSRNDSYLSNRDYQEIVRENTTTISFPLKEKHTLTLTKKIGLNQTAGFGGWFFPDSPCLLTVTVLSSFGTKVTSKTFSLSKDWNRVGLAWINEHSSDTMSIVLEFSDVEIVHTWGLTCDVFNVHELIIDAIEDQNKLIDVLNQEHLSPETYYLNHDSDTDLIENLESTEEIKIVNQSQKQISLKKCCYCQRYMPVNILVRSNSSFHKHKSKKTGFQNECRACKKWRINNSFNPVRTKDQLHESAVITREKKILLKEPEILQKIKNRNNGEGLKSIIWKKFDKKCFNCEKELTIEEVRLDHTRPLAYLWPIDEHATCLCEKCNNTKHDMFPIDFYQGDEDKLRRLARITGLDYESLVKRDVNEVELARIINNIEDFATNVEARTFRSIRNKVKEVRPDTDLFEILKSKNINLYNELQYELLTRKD

[3] = test system: T3, SspI-HF Y98F (Sphaerotilus species); conditions: NEB4, 37 C
T3 sequence: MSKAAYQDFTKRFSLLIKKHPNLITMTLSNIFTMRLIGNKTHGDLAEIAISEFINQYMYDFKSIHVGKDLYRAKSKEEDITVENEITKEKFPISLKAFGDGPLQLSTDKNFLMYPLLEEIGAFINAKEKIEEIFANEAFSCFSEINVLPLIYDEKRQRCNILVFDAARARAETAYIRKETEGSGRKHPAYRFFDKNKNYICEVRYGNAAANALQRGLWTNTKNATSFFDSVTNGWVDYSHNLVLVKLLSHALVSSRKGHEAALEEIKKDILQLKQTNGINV

[4] = biological target: EcoRI (Escherichia coli RY13) (UniProt P00642); conditions: NEB4, 37 C
[5] = test system: T4, SspI (Sphaerotilus species); conditions: NEB4, 37 C
T4 sequence: T3 sequence with F98Y

[6] = biological target: EcoRI-HF K62E (Escherichia coli RY13) (UniProt P00642); conditions: NEB4, 37 C
[7] = biological target: T5, BamHI(E86P) E86P (Bacillus amyloliquefaciens) (UniProt P23940); conditions: NEB4, 37 C
T5 sequence: T1 sequence with E86P

[8] = test system: T6, BsmBI (Bacillus stearothermophilus); conditions: NEB4, 55 C
T6 sequence: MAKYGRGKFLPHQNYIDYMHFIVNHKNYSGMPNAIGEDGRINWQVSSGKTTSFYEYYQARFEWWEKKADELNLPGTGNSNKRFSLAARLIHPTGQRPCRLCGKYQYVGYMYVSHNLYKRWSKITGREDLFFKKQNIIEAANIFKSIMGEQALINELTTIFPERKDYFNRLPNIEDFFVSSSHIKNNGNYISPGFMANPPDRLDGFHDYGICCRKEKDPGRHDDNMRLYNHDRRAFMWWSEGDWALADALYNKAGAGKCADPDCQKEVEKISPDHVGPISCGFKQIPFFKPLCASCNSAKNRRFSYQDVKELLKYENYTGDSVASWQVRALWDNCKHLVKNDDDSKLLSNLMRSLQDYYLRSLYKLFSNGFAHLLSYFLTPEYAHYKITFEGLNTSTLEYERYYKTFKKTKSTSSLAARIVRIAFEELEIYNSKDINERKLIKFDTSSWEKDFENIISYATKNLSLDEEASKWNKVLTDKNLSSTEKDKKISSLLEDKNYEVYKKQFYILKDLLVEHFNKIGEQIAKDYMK

[9] = biological target: T7, PstI-HF D91A (Providencia stuartii 164) (UniProt P00640); conditions: NEB4, 37 C
T7 sequence: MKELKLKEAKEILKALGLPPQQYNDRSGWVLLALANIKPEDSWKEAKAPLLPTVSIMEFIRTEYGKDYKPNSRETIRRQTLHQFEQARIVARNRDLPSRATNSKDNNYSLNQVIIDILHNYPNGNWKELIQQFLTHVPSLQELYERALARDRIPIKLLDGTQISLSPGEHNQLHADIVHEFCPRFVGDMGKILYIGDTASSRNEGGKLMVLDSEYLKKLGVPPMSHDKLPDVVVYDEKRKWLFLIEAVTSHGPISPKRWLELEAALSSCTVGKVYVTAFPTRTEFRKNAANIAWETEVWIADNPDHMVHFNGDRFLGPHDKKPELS

[10] = test system: T8, BstXI-HF N65A (Bacillus stearothermophilus); conditions: NEB4, 55 C
T8 sequence: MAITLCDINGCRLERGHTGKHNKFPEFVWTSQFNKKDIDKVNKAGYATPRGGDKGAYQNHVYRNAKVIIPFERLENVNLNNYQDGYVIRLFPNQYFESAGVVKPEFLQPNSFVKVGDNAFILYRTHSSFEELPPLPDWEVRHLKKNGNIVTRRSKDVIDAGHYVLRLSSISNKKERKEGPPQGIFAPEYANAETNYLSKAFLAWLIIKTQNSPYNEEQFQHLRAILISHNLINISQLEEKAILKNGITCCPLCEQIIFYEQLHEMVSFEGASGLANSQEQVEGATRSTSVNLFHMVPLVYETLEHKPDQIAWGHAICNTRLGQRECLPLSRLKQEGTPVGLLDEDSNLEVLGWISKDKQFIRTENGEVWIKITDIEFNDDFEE

[11] = biological target: EcoRI(K62A) K62A (Escherichia coli RY13) (UniProt P00642); conditions: NEB4, 37 C

lambda phage DNA
activity (fidelity index) [1]: 4
activity (fidelity index) [2]: 4
activity (fidelity index) [3]: 500
activity (fidelity index) [4]: 4
activity (fidelity index) [5]: 16
activity (fidelity index) [6]: 16000
activity (fidelity index) [7]: > 4000
activity (fidelity index) [8]: 4
activity (fidelity index) [9]: > 2000
activity (fidelity index) [10]: > 250
activity (fidelity index) [11]: 32000
